Laboratory results published in publication doi:10.1101/2025.09.26.678488, “Dishevelled drives Wnt-stimulated disassembly of primary cilia through a unique PDZ-mediated binding mode with Daple and Girdin” (bioRxiv, 2025).
No end group written: not given here. *: point of attachment. Lip = lipoyl, O=C(CCCC[C@@H]1CCSS1)*

How the values were obtained:
Lip-PDZ_(DVL2) = biological target: T1, Lip-PDZ_(DVL2) (human, UniProt O14641 265-361); assay: ITC; 40 μM Lip-PDZ_(DVL2) in the cell, 1.00 mM Lip-PBM_(Daple) or 1.33 mM Lip-PBM_(FZD4) in the syringe; 25°C; 25 mM sodium phosphate pH 6.7, 150 mM NaCl; one set of binding sites; apparent KD; conditions: both partners purified
T1 construct: DVL2 (Dishevelled-2), human, PDZ domain, amino acids 265-361; also called His6x-Lip-PDZ; source: E. coli BL21-CodonPlus(DE3)-RIL, purified (Ni-NTA, SEC); not shown: Lipoyl (Lip), N-terminal, kept
T1 sequence (looked up): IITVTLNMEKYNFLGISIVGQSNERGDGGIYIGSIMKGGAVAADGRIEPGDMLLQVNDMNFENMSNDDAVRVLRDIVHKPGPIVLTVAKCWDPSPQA

[1] = biological target: T2, PDZ_(DVL2) V334E cleft mutant (NMR sample) (human, UniProt O14641 265-361, V334E); assay: NMR titration; 1H-15N fHSQC of 100 μM 15N-labelled PDZ_(DVL2) alone or with 150 μM (Daple, Girdin) or 300 μM (FZD4) Lip-tagged PBM peptide; 298 K; chemical shift perturbations and line broadening; conditions: both partners purified
T2 construct: DVL2 (Dishevelled-2), human, PDZ domain, amino acids 265-361, V334E; source: E. coli BL21-CodonPlus(DE3)-RIL, purified (Ni-NTA, SEC)
T2 sequence (looked up): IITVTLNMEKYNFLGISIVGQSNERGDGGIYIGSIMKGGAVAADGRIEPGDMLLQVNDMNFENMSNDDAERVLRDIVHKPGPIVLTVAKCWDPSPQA

Kd (Lip-PDZ_(DVL2)): 9.1 µM
binding result [1]: binds
B1: Lip-PBM_(Daple) (C-terminal eight residues of Daple tagged with Lipoyl) (peptide, UniProt Q9P219 2021-2028, looked up)
peptide: Lip-VWYEYGCV
notes: Daple, C-terminal eight residues; the last residue is printed as Val2028, so 2021 is worked out; printed residues: Trp2022, Glu2024, Tyr2025, Gly2026, Cys2027, Val2028; source: E. coli BL21-CodonPlus(DE3)-RIL, purified (Ni-NTA, SEC); not shown: Lipoyl (Lip), N-terminal, kept
